Source: US20230365929A1, “METHOD OF DIFFERENTIATION OF PLURIPOTENT STEM CELLS TO RETINAL PIGMENT EPITHELIUM CELLS” (R.P. SCHERER TECHNOLOGIES, LLC, priority 2022, published 2023)

Tested on: Human induced pluripotent stem cells (hiPSCs)
Assay: RPE-specific markers expression in hiPSCs differentiated into RPE cells (RTqPCR; FACS)
Type: cell-based
Method: Day 0: overall undifferentiated and tight hiPSC morphology was confirmed to be at close to 100% confluency. Otherwise, the cells were fed once more with 4 ml prewarmed iPS Brew medium and instead differentiation was initiate the next day. KSR medium (4 ml needed per 6-well), PD0325901 (PD)/SB431542 (SB)/dorsomorphin (DM) aliquots, as well as Activin A were prepared and/or prewarmed. After thawing and thoroughly mixing all reagents, […] (1:1000 from 1 mM stock), […] (1:2000 from 10 mM stock), […] (1:2000 from 0.5 mM stock) and […] (1:400 from 10 μg/ml stock) were added to 4 ml KSR medium per confluent hiPSC culture well, after vigorously agitating culture plates and completely soaking off iPS Brew medium.
Days 1 and 2: media was prepared as above and old medium replaced on culture wells by 4 ml fresh differentiation medium per well, following vigorous agitation and complete media aspiration.
Day 3: KSR medium with Activin A only was prepared and old medium was replaced on culture wells by 4 ml fresh ActA-only differentiation medium per well, following vigorous agitation and complete media aspiration.
Day 4: fresh KSR+ActA differentiation medium was prepared and feed with 8 ml per well.
Second week: cells were fed daily with 4 ml per 6-well and 8 ml over the weekend.
Third and fourth weeks: no more small molecules were applied during the third and fourth weeks of differentiation. Only Activin A was added to basal media (either KSR or B27 medium) Activin A was added daily to prewarmed basal media, and old medium replaced on cells (1:100 thoroughly mixed).
Day 29 (week 5): newly coated dishes were prepared by coating 12-well (5 μl) or 6-well format (12 μl iM) with 4 x iMatrix-511 in PBS for 1 h at 37° C. KSR medium was prepared and prewarmed for splitting procedure. Differentiated cells were washed with PBS once (4 ml) or twice (2×2 ml), then 1 ml prewarmed TrypLE Se-lec was added. Cells were dissociated using a 1 ml pipette by pipetting up and down several times and results were checked under the microscope. Cell suspension was transferred to 15 ml tube and centrifuged at 300 g for 2 min. A portion of the cells was transferred into a 1.5 ml tube for downstream FACS and/or RT-qPCR analysis. Cells were resuspended in an appropriate amount of KSR medium and cell titer was determined using a Neubauer chamber. 400,000 cells per cm^2 were plated out in 6-well (with 4 ml KSR medium with or without Activin A24) or 12-well format (2 ml medium).
Samples to be analyzed by RT-qPCR were cells directly lysed from culture wells using RA1 buffer from the RNA isolation kit. […] RNA concentration was measured on NanoDrop monitoring A260/280 and A260/230 ratios. […]

B1: Activin A (protein, UniProt P08476 311-426, looked up)
Inhibin beta A chain: GLECDGKVNICCKKQFFVSFKDIGWNDWIIAPSGYHANYCEGECPSHIAGTSGSSLSFHSTVINHYRMRGHSPFANLKSCCVPTKLRPMSMLYYDDGQNIIKKDIQNMIVEECGCS
modifications: homodimer
notes: member of the TGFβ family of proteins; disulfide-linked homodimer (two beta-A chains)
Activin A treatment initiated after signaling inhibition (PSD then A) vs standard simultaneous protocol, FIG. 6
  RPE gene expression: reduced RPE gene expression
RTqPCR (OTX2, MITF, PMEL), complete withdrawal of the three small molecules, FIG. 5
  induction of RPE cell fate: insufficient for inducing RPE cell fate
RTqPCR of RPE-specific markers, non-treated vs Activin A only vs PSD+A, FIG. 2C
  induction of the RPE phenotype: not sufficient to induce the RPE phenotype
Titration of Activin A: concentration below 20 ng/ml or complete withdrawal, FIG. 7
  RPE induction: inferior RPE induction
